Positions of bridges follow the written chain, without caps; N, C: chain ends. Residues, ends and D or L forms follow the SMILES beside them. Groups on a side chain read outwards from the residue. Chains are numbered I, II in the order given. *: point of attachment. Daunorubicin(13-NOCH2CO) = COc1cccc2c1C(=O)c1c(O)c3c(c(O)c1C2=O)C[C@@](O)(C(C)=NOCC(=O)*)C[C@@H]3O[C@H]1C[C@H](N)[C@H](O)[C@H](C)O1
How the values were obtained:
[1] = tested on: HT-1080 cells; test: Cellular uptake by flow cytometry; format: cell-based, human; settings: 10 μM conjugate in FBS supplemented medium, 6 h, 37°C, flow cytometry of Dau fluorescence, live cells (Zombie Violet)
Protocol: (§1) HT-1080 and HT-29 cells were seeded at a 250,000 cells/well density, and were incubated overnight in their culturing media. The following day daunomycin conjugates were dissolved in culturing media (FBS supplemented), and added to the cells immediately at 10 μM final concentration. After 6 h incubation at 37°C the supernatant was removed, cells were washed with PBS and trypsinized with 0.1% trypsin (Gibco® by Life Technologies) for 10 minutes. Trypsinization was terminated with FBS containing medium, then cells were washed and suspended in serum free medium. For live/dead distinction we used Zombie Violet reagent (BioLegend, San Diego, CA). Samples were measured and analyzed with an Attune® Acoustic Focusing Cytometer (ThermoFisher Scientific).
(§2) As daunomycin-conjugates are fluorescent, we were able to follow their cellular uptake with a flow cytometer (Fig 10, S15 Fig). […] The higher uptake of 2 compared to 5 might partly compensate its slower degradation resulting in almost similar bioactivity. […] We speculate that the high cytostatic effect of 3 is explained by its fast decomposition resulting in the active Dau = Aoa-Gly-OH metabolite. […] However, after deamidation the formed isoDGR might be recognized by RGD integrin receptor, that results in moderate cytotoxicity in both cell lines during a longer treatment. […] Taking also the slow metabolite release into account, this observation explains the lack of significant cytostatic effect.
(§3) Fig 10 Direct uptake of daunomycin-conjugates. Normalized uptake values indicate the fold increase of the measured fluorescent units compared to the autofluorescence of empty cells.

[2] = tested on: HT-29 cells; test: Cellular uptake by flow cytometry; format: cell-based, human; settings: 10 μM conjugate in FBS supplemented medium, 6 h, 37°C, flow cytometry of Dau fluorescence, live cells (Zombie Violet)
Protocol: as §1, §2, §3

[3] = Lysosomal degradation; format: in vitro ADME; settings: rat liver lysosomal homogenate, 37°C, LC-MS; for time within which the conjugate decomposed in lysosomal homogenate / rate of decomposition in lysosomal homogenate: 0.2 M NaOAc pH 5.0, conjugate/homogenate 1:1 w/w; for time within which the conjugate decomposed in lysosomal homogenate: conjugate 0.2 μg/μL, samples at 5 min, 72 h; for time within which the conjugate decomposed in lysosomal homogenate / starting conjugate found after 6 h incubation in lysosomal homogenate: 6 h; for starting conjugate found after 6 h incubation in lysosomal homogenate: 0.2 M NaOAc pH 5.0, 1:1 w/w
Protocol: Rat liver lysosomal homogenate was prepared as described previously. Protein concentration was determined with bicinchoninic acid (Pierce BCA protein assay) according to the manufacturer’s protocol (ThermoFisher Scientific, Rockford, IL, USA) and it was 17.4 μg/μL. Degradation of the bioconjugates in the rat liver lysosomal homogenate was determined as follows: i) bioconjugates were dissolved in d.i. water at a concentration of 4 μg/μL, ii) the solutes were further diluted to a concentration of 0.2 μg/μL with 0.2 M NaOAc (pH 5.0), iii) the rat liver lysosomal homogenate was diluted with 0.2 M NaOAc (pH 5.0) to a concentration of 3.48 μg/μL, iv) the homogenate was added to the conjugates (conjugate/lysosomal homogenate ratio = 1:1, w/w), v) the reaction mixtures were incubated at 37°C and aliquots of 13 μL were taken at 5 min, 6 h and 72 h, vi) the reactions were quenched by adding 2 μL of formic acid, followed by LC-MS analysis (Bruker Esquire 3000+; Jasco PU-2085plus system; Supelco Ascentis C18 coloum, 3 μm, 2,1 x 150 mm, 100 Å).
Conjugates for drug targeting with receptor-binding peptides may enter the cells by receptor mediated endocytosis. Endocytic vesicles fuse with lysosomes, which is followed by the degradation of the conjugates by lysosomal enzymes. Cathepsin B is one of the main lysosomal enzymes overexpressed in cancer cells. Therefore, Cathepsin B labile spacers (e.g. GFLG tetrapeptide) are often incorporated between the drug and targeting moiety. We used a rat lysosomal homogenate to study the degradation of conjugates and to follow the release of drug containing metabolites (Fig 9, S9–S14 Figs). […] In addition, a minor peak corresponding to Dau = Aoa-Gly-Phe-OH could also be detected. The peak corresponding to Dau = Aoa-GF-OH was the highest in case of conjugate 1. In contrast to these conjugates, decomposition of the disulfide bond containing conjugate (2) was much slower. […] This slow degradation might be one of the reasons why conjugate 2 is less toxic than conjugate 5, which has the same ring size. […] After 72 h only Dau = Aoa-Gly-OH could be detected in cases of all conjugates.

[4] = non-conjugated cyclic peptides; cited from earlier work
Description: Cyclic NGR peptides are promising candidates as targeting moieties for drug delivery to CD13-positive tumor cells and the tumor neovasculature. Up to now the most widely used NGR peptide conjugates have been based on the disulfide bridge containing cyclic peptide [CNGRC]. The cargo (including tumor necrosis factor (TNF), platina complexes, etc.) is usually attached to the C-terminus of the peptide. Recently, an amide bond containing cyclic NGR peptide ([KNGRE]-NH2) with higher resilience against deamidation has been described, in which cargos such as fluorescent labels or chelated ...

Row | Compound | cellular uptake in HT-1080 cells [1] | cellular uptake in HT-29 cells [2] | time within which the conjugate decomposed in lysosomal homogenate [3] | starting conjugate found after 6 h incubation in lysosomal homogenate [3] | rate of decomposition in lysosomal homogenate [3] | chemostability class of the free cyclic NGR peptide (deamidation) [4]
1 | COc1cccc2c1C(=O)c1c(O)c3c(c(O)c1C2=O)C[C@@](O)(C(C)=NOCC(=O)NCC(=O)N[C@@H](Cc1ccccc1)C(=O)N[C@@H](CC(C)C)C(=O)NCC(=O)N[C@@H](CCCCNC(=O)CNC(=O)CNC(=O)[C@@H]1CSCC(=O)N[C@@H](CC(N)=O)C(=O)NCC(=O)N[C@@H](CCCNC(=N)N)C(=O)N1)C(N)=O)C[C@@H]3O[C@H]1C[C@H](N)[C@H](O)[C@H](C)O1 [compound 1, Dau = GFLGK([CH2CO-NGRC]GG)-NH2] (I: {CH2CO}-NGRCGG / II: {Daunorubicin(13-NOCH2CO)}-GFLGK-NH2; amide I:C-II:5; thioether I:N-I:4) | did not show significant cellular uptake | did not show significant cellular uptake | ≤ 6 h |  |  | 
2 | COc1cccc2c1C(=O)c1c(O)c3c(c(O)c1C2=O)C[C@@](O)(C(C)=NOCC(=O)NCC(=O)N[C@@H](Cc1ccccc1)C(=O)N[C@@H](CC(C)C)C(=O)NCC(=O)N[C@@H](CCCCNC(=O)CNC(=O)CNC(=O)[C@@H]1CSSC[C@H](NC(C)=O)C(=O)N[C@@H](CC(N)=O)C(=O)NCC(=O)N[C@@H](CCCNC(=N)N)C(=O)N1)C(N)=O)C[C@@H]3O[C@H]1C[C@H](N)[C@H](O)[C@H](C)O1 [compound 2, Dau = GFLGK(Ac-[CNGRC]GG)-NH2] (I: Ac-CNGRCGG / II: {Daunorubicin(13-NOCH2CO)}-GFLGK-NH2; disulfide I:1-I:5; amide I:C-II:5) | higher accumulation | higher accumulation |  | the presence of the starting compound could be detected | much slower | 
3 | COc1cccc2c1C(=O)c1c(O)c3c(c(O)c1C2=O)C[C@@](O)(C(C)=NOCC(=O)NCC(=O)N[C@@H](Cc1ccccc1)C(=O)N[C@@H](CC(C)C)C(=O)NCC(=O)N[C@@H](CCCCNC(=O)CNC(=O)CNC(=O)[C@@H]1CSCC(=O)N[C@@H](CCCCN)C(=O)N[C@@H](CC(N)=O)C(=O)NCC(=O)N[C@@H](CCCNC(=N)N)C(=O)N1)C(N)=O)C[C@@H]3O[C@H]1C[C@H](N)[C@H](O)[C@H](C)O1 [compound 3, Dau = GFLGK([CH2CO-KNGRC]GG)-NH2] (I: {CH2CO}-KNGRCGG / II: {Daunorubicin(13-NOCH2CO)}-GFLGK-NH2; amide I:C-II:5; thioether I:N-I:5) | moderate uptake | moderate uptake | ≤ 6 h |  |  | 
4 | COc1cccc2c1C(=O)c1c(O)c3c(c(O)c1C2=O)C[C@@](O)(C(C)=NOCC(=O)NCC(=O)N[C@@H](Cc1ccccc1)C(=O)N[C@@H](CC(C)C)C(=O)NCC(=O)NCCCC[C@@H]1NC(=O)CSC[C@@H](C(N)=O)NC(=O)[C@H](CCCNC(=N)N)NC(=O)CNC(=O)[C@H](CC(N)=O)NC1=O)C[C@@H]3O[C@H]1C[C@H](N)[C@H](O)[C@H](C)O1 [compound 4, [CH2CO-K(Dau = Aoa-GFLG)NGRC]-NH2] ({CH2CO}-K([Gly-Leu-Phe-Gly-Daunorubicin(13-NOCH2CO)])NGRC-NH2; thioether N-5) | low cellular uptake | low cellular uptake |  | the main components were still the intact conjugates | decomposed very slowly | 
5 | COc1cccc2c1C(=O)c1c(O)c3c(c(O)c1C2=O)C[C@@](O)(C(C)=NOCC(=O)NCC(=O)N[C@@H](Cc1ccccc1)C(=O)N[C@@H](CC(C)C)C(=O)NCC(=O)NCCCC[C@@H]1NC(=O)CC[C@@H](C(N)=O)NC(=O)[C@H](CCCNC(=N)N)NC(=O)CNC(=O)[C@H](CC(N)=O)NC1=O)C[C@@H]3O[C@H]1C[C@H](N)[C@H](O)[C@H](C)O1 [compound 6, [K(Dau = Aoa-GFLG)NGRE]-NH2] (K([Gly-Leu-Phe-Gly-Daunorubicin(13-NOCH2CO)])NGRE-NH2; lactam N-5) | low cellular uptake | low cellular uptake |  | the main components were still the intact conjugates | decomposed very slowly | 
6 | Ac-CNGRC-NH2 (disulfide 1-5) [Ac-[CNGRC]-NH2, disulfide bridge containing cyclic NGR peptide] |  |  |  |  |  | moderately
7 | c[CH2-CO-KNGRC]-NH2 (sidechain bridge or staple) [thioether bond containing cyclic NGR peptide] |  |  |  |  |  | highly labile
8 | c[CH2-CO-NGRC]-NH2 |  |  |  |  |  | highly labile
9 | c[KNGRE]-NH2 (lariat or depsi) [head-to-side chain amide bond cyclized NGR peptide] |  |  |  |  |  | stable

— article PMC5456102, “NGR-peptide−drug conjugates with dual targeting properties” (PLoS ONE, 2017)
